Experimental findings from patent publication US20230381328A1, “COMPOUND FOR THE PREVENTION OR TREATMENT OF MYASTHENIA GRAVIS” (ABLEVIA BIOTECH GMBH, priority 2020, published 2023) are described below.

Where no end group is shown, it is not given here.

The experiment addresses monoclonal antibody mAB 198. The experiment in a line: peptide microarray, fluorescence, cyclic peptide.

NPADYGR (also: cyclic peptide, ring type and places not given here) [NPADYGR, cyclic mimotope] registered a relative signal [%] of 19.5%.

RVNPADY (also: cyclic peptide, ring type and places not given here) [RVNPADY, cyclic mimotope]: the relative signal [%] was determined as 18.7%.

Molecule GGSLRGNPADY (also: cyclic peptide, mode of cyclisation not given here) gave a relative signal [%] of 19.6%.

VRLRRNPAD (also: cyclic peptide, mode of cyclisation not given here) gave a relative signal [%] of 14.7%.

The molecule RGNPADYGG (also: cyclic peptide, ring type and places not given here) had a relative signal [%] of 22.2%.

Regarding LRLNPADYG (also: cyclic peptide, mode of cyclisation not given here), the relative signal [%] stood at 28.6%.

For the molecule WNPADYP (also: cyclic peptide, mode of cyclisation not given here) [WNPADYP, cyclic mimotope], the relative signal [%] was determined as 21.1%.

As to LRRNPAD (also: cyclic peptide, mode of cyclisation not given here) [LRRNPAD, cyclic mimotope], the relative signal [%] came out at 28.2%.

In turn, GGGSLRRNPAD (also: cyclic peptide, mode of cyclisation not given here) gave a relative signal [%] of 12.5%.

LRINPADYG (also: cyclic peptide, mode of cyclisation not given here): the relative signal [%] amounted to 22.8%.

Molecule SLRINPADY (also: cyclic peptide, mode of cyclisation not given here) displayed a relative signal [%] of 28%.

The molecule RINPADYGG (also: cyclic peptide, ring type and places not given here) showed a relative signal [%] of 23.1%.

As for GNPADYGGI (also: cyclic peptide, mode of cyclisation not given here), the relative signal [%] stood at 13.7%.

Take RGNPADY (also: cyclic peptide, ring type and places not given here) [RGNPADY, cyclic mimotope]: the relative signal [%] was 23.8%.

In the case of SLRFNPADY (also: cyclic peptide, ring type and places not given here), the relative signal [%] was found to be 13.6%.

As to NPADYGD (also: cyclic peptide, mode of cyclisation not given here) [NPADYGD, cyclic mimotope], the relative signal [%] worked out at 12.6%.

Consider RPRWNPADY (also: cyclic peptide, ring type and places not given here), for which the relative signal [%] came out at 12.4%.

With GGSLRINPADY (also: cyclic peptide, mode of cyclisation not given here), the relative signal [%] is 25.4%.

In turn, GSLRWNPADYR (also: cyclic peptide, mode of cyclisation not given here) yielded a relative signal [%] of 16.2%.

Molecule GGSLRFNPADY (also: cyclic peptide, mode of cyclisation not given here) had a relative signal [%] of 14.5%.

The molecule RLRYNPADY (also: cyclic peptide, ring type and places not given here) had a relative signal [%] of 24.5%.

DVRLRPNPADY (also: cyclic peptide, mode of cyclisation not given here): the relative signal [%] amounted to 21.3%.

Turning to DVRLRGNPADY (also: cyclic peptide, mode of cyclisation not given here), the relative signal [%] was 25%.

As to NPADYRG (also: cyclic peptide, ring type and places not given here) [NPADYRG, cyclic mimotope], the relative signal [%] turned out to be 27.4%.

SLRVNPADY (also: cyclic peptide, mode of cyclisation not given here) came in with a relative signal [%] of 26.5%.

In turn, RRNPADY (also: cyclic peptide, ring type and places not given here) [RRNPADY, cyclic mimotope] had a relative signal [%] of 23.5%.

VRLRVNPADYG (also: cyclic peptide, mode of cyclisation not given here) came in with a relative signal [%] of 13.4%.

In turn, GGSLRVNPADY (also: cyclic peptide, mode of cyclisation not given here) displayed a relative signal [%] of 22.5%.

For the molecule LRRNPADYG (also: cyclic peptide, mode of cyclisation not given here), the relative signal [%] is 23.4%.

RLRINPADY (also: cyclic peptide, ring type and places not given here) came in with a relative signal [%] of 25.5%.

With DVRLRFNPADY (also: cyclic peptide, mode of cyclisation not given here), the relative signal [%] was 27.7%.

With SLRYNPADY (also: cyclic peptide, mode of cyclisation not given here), the relative signal [%] is 12.2%.

In the case of SLRLNPADY (also: cyclic peptide, mode of cyclisation not given here), the relative signal [%] was found to be 21.8%.

RLYWNPADY (also: cyclic peptide, ring type and places not given here) gave a relative signal [%] of 13.7%.

On to NPADYGH (also: cyclic peptide, mode of cyclisation not given here) [NPADYGH, cyclic mimotope], for which the relative signal [%] was found to be 15.8%.

In turn, LRWNPADYP (also: cyclic peptide, mode of cyclisation not given here) had a relative signal [%] of 13.1%.

As to RTNPADY (also: cyclic peptide, ring type and places not given here) [RTNPADY, cyclic mimotope], the relative signal [%] came to 14.6%.

As for WNPADYR (also: cyclic peptide, mode of cyclisation not given here) [WNPADYR, cyclic mimotope], the relative signal [%] is 24.9%.

Molecule RLRFNPADY (also: cyclic peptide, ring type and places not given here) displayed a relative signal [%] of 21.3%.

Consider VNPADYG (also: cyclic peptide, mode of cyclisation not given here) [VNPADYG, cyclic mimotope], for which the relative signal [%] turned out to be 12.5%.

On to RPNPADY (also: cyclic peptide, ring type and places not given here) [RPNPADY, cyclic mimotope], for which the relative signal [%] was 15.6%.

Molecule RYNPADY (also: cyclic peptide, ring type and places not given here) [RYNPADY, cyclic mimotope] had a relative signal [%] of 20.2%.

GSLRWNPADYP (also: cyclic peptide, mode of cyclisation not given here) gave a relative signal [%] of 12.4%.

For SLRGNPADY (also: cyclic peptide, ring type and places not given here), the relative signal [%] turned out to be 15.4%.
